The target of the test is T1, SARS-CoV-2 RBD (SARS-CoV-2, UniProt P0DTC2 319-541).
T1 construct: domain: RBD
Kind of test: ELISA on recombinant spike subdomains.

B1: 71281-31 (antibody, V domains shown)
VH: QVQLVESGGGVVQPGRSLRLSCAASGFTFSRYGMHWVRQAPGKGLEWVAFISYDGDNKYYADSVKGRFTISRDNSKNTLYLQMDSLRTEDTAVYYCAKDPTARLGYCRGGSCYLADYWGQGTLVTVSS
VL: SYVLTQPPSVSVAPAQTARITCGGNNIESKSVHWYQQKPGQAPVLVVYENSDRPSGIPERFSGSNSGNMATLTISRVEAGDEADYYCQVWESSSDHVIFGGGTKLTVL
In the case of B1, the binding result is listed as “binds”.

Values taken from patent US20260234224A1 (VANDERBILT UNIVERSITY, published 2026).
